Results on one molecule are retold here after publication doi:10.1101/2025.06.13.659598.

Test [1] has as its target nesprin-2G SR11-12 (spectrin repeats 11-12 of human nesprin-2) (human). Description: BLI.
Test [2] has as its target nesprin-2G SR11-13 (spectrin repeats 11-13 of human nesprin-2) (human). Briefly: BLI.

B1: FHOD1 SRBD-DID (amino terminal construct of human FHOD1) (domain or fragment)
chain: SVVTVRVQYLEDTDPFACANFPEPRRAPTCSLDGALPLGAQIPAVHRLLGAPLKLEDCALQVSPSGYYLDTELSLEEQREMLEGFYEEISKGRKPTLILRTQLSVRVNAILEKLYSSSGPELRRSLFSLKQIFQEDKDLVPEFVHSEGLSCLIRVGAAADHNYQSYILRALGQLMLFVDGMLGVVAHSDTIQWLYTLCASLSRLVVKTALKLLLVFVEYSENNAPLFIRAVNSVASTTGAPPWANLVSILEEKNGADPELLVYTVTLINKTLAALPDQDSFYDVTDALEQQGMEALVQRHLGTAGTDVDLRTQLVLYENAL
Consider B1, for which the Kd in test [1] came out at 472 nM; in test [2], 92 nM.
